{
  "source": "patent US20260028391A1",
  "key": {"[1]": {"molecular_target": "RSV A fusion glycoprotein (F), virus of the neutralisation assays of Tables 54 and 57 (RSV A)", "test": "cell-based or functional assay"}, "[2]": {"molecular_target": "RSV F A G446E (RSV A, strain A2) (UniProt P03420)", "test": "FACS, % binding to RSV F A variants"}, "[3]": {"molecular_target": "RSV F A L203I (RSV A, strain A2) (UniProt P03420)", "test": "FACS, % binding to RSV F A variants"}, "[4]": {"molecular_target": "RSV F A N208Y-N671I (RSV A, strain A2) (UniProt P03420)", "test": "FACS, % binding to RSV F A variants"}, "[5]": {"molecular_target": "RSV F A S433P (RSV A, strain A2) (UniProt P03420)", "test": "FACS, % binding to RSV F A variants"}, "[6]": {"molecular_target": "RSV F A S433P-G446E (RSV A, strain A2) (UniProt P03420)", "test": "FACS, % binding to RSV F A variants"}, "[7]": {"molecular_target": "RSV F A S443P-K445N (RSV A, strain A2) (UniProt P03420)", "test": "FACS, % binding to RSV F A variants"}, "[8]": {"molecular_target": "RSV F A, A2 Ref (RSV A, strain A2) (UniProt P03420)", "test": "FACS, % binding to RSV F A variants"}, "[9]": {"molecular_target": "RSV F B K68N-N201S (RSV B)", "test": "FACS, % binding to RSV F B variants"}, "[10]": {"molecular_target": "RSV F B K68N-N208S (RSV B)", "test": "FACS, % binding to RSV F B variants"}, "RSV F B N201S (RSV B)": {"molecular_target": "RSV F B N201S (RSV B)", "test": "FACS, % binding to RSV F B variants"}, "RSV F B N208D (RSV B)": {"molecular_target": "RSV F B N208D (RSV B)", "test": "FACS, % binding to RSV F B variants"}, "RSV F B N208S (RSV B)": {"molecular_target": "RSV F B N208S (RSV B)", "test": "FACS, % binding to RSV F B variants"}, "RSV F B S443P (RSV B)": {"molecular_target": "RSV F B S443P (RSV B)", "test": "FACS, % binding to RSV F B variants"}, "RSV F B, B Ref (RSV B)": {"molecular_target": "RSV F B, B Ref (RSV B)", "test": "FACS, % binding to RSV F B variants"}, "[11]": {"molecular_target": "MPV fusion glycoprotein (MPV-F) of MPV-A2 (CAN97-83) (human metapneumovirus, strain CAN97-83) (UniProt Q6WB98)", "test": "cell-based or functional assay"}, "[12]": {"molecular_target": "MPV fusion glycoprotein (MPV-F) of MPV-B2 (TN/96-213) (human metapneumovirus, strain TN/96-213)", "test": "cell-based or functional assay"}, "[13]": {"molecular_target": "RSV A Randall fusion glycoprotein (F) (RSV A, strain Randall)", "test": "cell-based or functional assay"}, "[14]": {"molecular_target": "RSV fusion glycoprotein (RSV-F) of RSV-A (A2) (respiratory syncytial virus A, strain A2) (UniProt P03420)", "test": "cell-based or functional assay"}, "[15]": {"molecular_target": "RSV fusion glycoprotein (RSV-F) of RSV-B (B1) (respiratory syncytial virus B, strain B1) (UniProt O36634)", "test": "cell-based or functional assay"}, "[16]": {"molecular_target": "RSV fusion glycoprotein (RSV-F) of the RSV used in the neutralization of Table 33 (respiratory syncytial virus, strain not stated)", "test": "cell-based or functional assay"}, "[17]": {"molecular_target": "RSV-B B9320 F protein (RSV B, strain B9320)", "test": "cell-based or functional assay"}, "[18]": {"molecular_target": "fusion glycoprotein (F) of RSV A/A2/61 (respiratory syncytial virus A/A2/61) (UniProt P03420)", "test": "cell-based or functional assay"}, "[19]": {"molecular_target": "fusion glycoprotein (F) of RSV B/9727 (respiratory syncytial virus B/9727)", "test": "cell-based or functional assay"}, "[20]": {"molecular_target": "fusion glycoprotein (F) of the MPV used in the neutralization of Table 34 (metapneumovirus)", "test": "cell-based or functional assay"}, "[21]": {"molecular_target": "fusion glycoprotein of Human Metapneumovirus-GFP CAN97-83 (Vira Tree M121) (human metapneumovirus CAN97-83) (UniProt Q6WB98)", "test": "cell-based or functional assay"}, "[22]": {"molecular_target": "fusion glycoprotein of Human metapneumovirus-TN/96-213 (BEI NR-22243) (human metapneumovirus TN/96-213)", "test": "cell-based or functional assay"}, "[23]": {"molecular_target": "fusion glycoprotein of RSV A2 BPR-344-00 (BEI NR-12149) (respiratory syncytial virus A2) (UniProt P03420)", "test": "cell-based or functional assay"}, "[24]": {"molecular_target": "fusion glycoprotein of RSV B1 BPR-348-00 (BEI NR-4052) (respiratory syncytial virus B1) (UniProt O36634)", "test": "cell-based or functional assay"}, "[25]": {"molecular_target": "fusion glycoprotein of the MPV D280 used in the neutralization assay of Example 3 (metapneumovirus (strain not stated))", "test": "cell-based or functional assay"}, "[26]": {"molecular_target": "fusion glycoprotein of the RSV used in the neutralization assay of Example 1 (respiratory syncytial virus (strain not stated))", "test": "cell-based or functional assay"}, "[27]": {"molecular_target": "RSV fusion glycoprotein (RSV-F), pre-fusion conformation, recombinant protein loaded on sensors (respiratory syncytial virus (RSV), strain not stated)", "test": "ELISA-type titration, OD 405 nm, on Pre-F"}, "[28]": {"molecular_target": "RSV fusion glycoprotein (RSV-F) (respiratory syncytial virus (strain not stated))", "test": "SPR; sensors loaded with F protein, mAb in solution"}, "[29]": {"molecular_target": "MPV fusion glycoprotein with the D280N mutation (MPV-F N280) (metapneumovirus)", "test": "SPR; F protein loaded on streptavidin sensors, mAb in solution"}, "[30]": {"molecular_target": "MPV fusion glycoprotein without the D280N mutation (MPV-F D280) (metapneumovirus)", "test": "SPR; F protein loaded on streptavidin sensors, mAb in solution"}, "[31]": {"molecular_target": "RSV fusion glycoprotein (RSV-F) (respiratory syncytial virus)", "test": "SPR; F protein loaded on streptavidin sensors, mAb in solution"}, "[32]": {"molecular_target": "RSV B 9719/09 fusion glycoprotein (F) (RSV B, strain 9719/09)", "test": "cell-based or functional assay"}, "[33]": {"molecular_target": "RSV fusion glycoprotein (RSV-F) (respiratory syncytial virus (strain not stated))", "test": "SPR; sensors loaded with RSV-F, mAb in solution (Experiment 2)"}},
  "data": [
    {"substance": "MK-1654-rIgG1m17,1-YTE (antibody)", "values": [
      {"measurement": "IC50, neutralization of RSVA", "setting": "[1]", "result": 0.00461, "unit": "µg/mL"},
      {"measurement": "% binding", "setting": "[2]", "result": 0.049, "unit": "%"},
      {"measurement": "% binding", "setting": "[3]", "result": 62.6, "unit": "%"},
      {"measurement": "% binding", "setting": "[4]", "result": 43.1, "unit": "%"},
      {"measurement": "% binding", "setting": "[5]", "result": 7.14, "unit": "%"},
      {"measurement": "% binding", "setting": "[6]", "result": 1.04, "unit": "%"},
      {"measurement": "% binding", "setting": "[7]", "result": 0.11, "unit": "%"},
      {"measurement": "% binding", "setting": "[8]", "result": 83.7, "unit": "%"},
      {"measurement": "% binding", "setting": "[9]", "result": 66.7, "unit": "%"},
      {"measurement": "% binding", "setting": "[10]", "result": 65.7, "unit": "%"},
      {"measurement": "% binding", "setting": "RSV F B N201S (RSV B)", "result": 64.7, "unit": "%"},
      {"measurement": "% binding", "setting": "RSV F B N208D (RSV B)", "result": 63.1, "unit": "%"},
      {"measurement": "% binding", "setting": "RSV F B N208S (RSV B)", "result": 64.3, "unit": "%"},
      {"measurement": "% binding", "setting": "RSV F B S443P (RSV B)", "result": 22.6, "unit": "%"},
      {"measurement": "% binding", "setting": "RSV F B, B Ref (RSV B)", "result": 63.4, "unit": "%"}
    ]},
    {"substance": "MPE8 (antibody)", "values": [
      {"measurement": "Neutralization (IC50, ng/ml)", "setting": "[11]", "result": 12.6, "unit": "ng/mL"},
      {"measurement": "Neutralization (IC50, ng/ml)", "setting": "[12]", "result": 23.6, "unit": "ng/mL"},
      {"measurement": "RSV IC50 (ng/ml), neutralization of A/Randall", "setting": "[13]", "result": 22, "unit": "ng/mL"},
      {"measurement": "Neutralization (IC50, ng/ml)", "setting": "[14]", "result": 6, "unit": "ng/mL"},
      {"measurement": "Neutralization (IC50, ng/ml)", "setting": "[15]", "result": 3.7, "unit": "ng/mL"},
      {"measurement": "IC50 (ng/mL) in neutralization against RSV", "setting": "[16]", "result": 12.2, "unit": "ng/mL"},
      {"measurement": "RSV IC50 (ng/ml), neutralization of B/9320", "setting": "[17]", "result": 3.2, "unit": "ng/mL"},
      {"measurement": "RSV IC50 (ng/ml), neutralization of A/A2", "setting": "[18]", "result": 126, "unit": "ng/mL"},
      {"measurement": "RSV IC50 (ng/ml), neutralization of B/9727", "setting": "[19]", "result": 16.9, "unit": "ng/mL"},
      {"measurement": "IC50 (ng/mL) in neutralization against MPV", "setting": "[20]", "result": 11, "unit": "ng/mL"},
      {"measurement": "RSV and MPV Neutralization (IC50 ng/ml)", "setting": "[21]", "result": 12.6, "unit": "ng/mL"},
      {"measurement": "RSV and MPV Neutralization (IC50 ng/ml)", "setting": "[22]", "result": 23.6, "unit": "ng/mL"},
      {"measurement": "RSV and MPV Neutralization (IC50 ng/ml)", "setting": "[23]", "result": 6.01, "unit": "ng/mL"},
      {"measurement": "RSV and MPV Neutralization (IC50 ng/ml)", "setting": "[24]", "result": 3.71, "unit": "ng/mL"},
      {"measurement": "MPV D280 Neutralization - IC50", "setting": "[25]", "result": 0.0069, "unit": "µg/mL"},
      {"measurement": "RSV Neutralization - IC50", "setting": "[26]", "result": 0.0153, "unit": "µg/mL"},
      {"measurement": "EC50 (read off the curve)", "setting": "[27]", "result": 0.03, "unit": "µg/mL"},
      {"measurement": "Kd", "setting": "[28]", "result": 0.001, "unit": "nM"},
      {"measurement": "Kd", "setting": "[29]", "result": 100, "unit": "nM"},
      {"measurement": "Kd", "setting": "[30]", "result": 2.5, "unit": "nM"},
      {"measurement": "Kd", "setting": "[31]", "result": 0.001, "unit": "nM"}
    ]},
    {"substance": "Palivizumab (antibody)", "values": [
      {"measurement": "IC50, virus neutralization", "setting": "[13]", "result": 0.122, "unit": "µg/mL"},
      {"measurement": "IC50, virus neutralization", "setting": "[32]", "result": 0.0786, "unit": "µg/mL"}
    ]},
    {"substance": "palivizumab (antibody)", "values": [
      {"measurement": "RSV Neutralization - IC50", "setting": "[26]", "result": 0.156, "unit": "µg/mL"},
      {"measurement": "Kd", "setting": "[33]", "result": 2.6, "unit": "nM"},
      {"measurement": "Kd", "setting": "[31]", "result": 2.6, "unit": "nM"}
    ]},
    {"substance": "palivizumab-rIgG1 (antibody)", "values": [
      {"measurement": "IC50 (ng/mL) in neutralization against RSV", "setting": "[16]", "result": 55.2, "unit": "ng/mL"},
      {"measurement": "IC50 (ng/mL) in neutralization against MPV", "setting": "[20]", "result": "> 2000", "unit": "ng/mL"}
    ]}
  ]
}
